Data taken from patent US20110118131A1 (published 2011).

Molecular target: IL-1β (UniProt P01584 117-269)
Experiment: Biacore, Fab periplasmic extract on IL-1β

fold difference in affinity vs original [fold] | binding result | Binder
1.16 |  | XPA23 light chain S93A (Fab, V domains shown, Single light chain substitution; Fab in periplasmic extract; also called C5A (XPA23) S93A) VH: EVQLLESGGGLVQPGGSLRLSCAASGFTFSKYFMFWVRQAPGKGLEWVSVISPSGGMTRYADSVKGRFTISRDNSKNTLYLQMNSLRAEDTAVYYCARVGYGGNSDYWGQGTLVTVSS VL: DIQMTQSPSSVSASVGDRLTIICRASQDINRWLAWYQQTPGNAPKLLIHSATSLQSGVPSRFSGSGSGTDFTLTINSLQPEDFATYYCQQADAFPLTFGGGTKVEIK
1.08 |  | XPA23 light chain S93L (Fab, V domains shown, Single light chain substitution; Fab in periplasmic extract; also called C5A (XPA23) S93L) VH: EVQLLESGGGLVQPGGSLRLSCAASGFTFSKYFMFWVRQAPGKGLEWVSVISPSGGMTRYADSVKGRFTISRDNSKNTLYLQMNSLRAEDTAVYYCARVGYGGNSDYWGQGTLVTVSS VL: DIQMTQSPSSVSASVGDRLTIICRASQDINRWLAWYQQTPGNAPKLLIHSATSLQSGVPSRFSGSGSGTDFTLTINSLQPEDFATYYCQQADLFPLTFGGGTKVEIK
1.35 |  | XPA23 light chain S93I (Fab, V domains shown, Single light chain substitution; Fab in periplasmic extract; also called C5A (XPA23) S93I) VH: EVQLLESGGGLVQPGGSLRLSCAASGFTFSKYFMFWVRQAPGKGLEWVSVISPSGGMTRYADSVKGRFTISRDNSKNTLYLQMNSLRAEDTAVYYCARVGYGGNSDYWGQGTLVTVSS VL: DIQMTQSPSSVSASVGDRLTIICRASQDINRWLAWYQQTPGNAPKLLIHSATSLQSGVPSRFSGSGSGTDFTLTINSLQPEDFATYYCQQADIFPLTFGGGTKVEIK
3.81 |  | XPA23 light chain S93V (Fab, V domains shown, Single light chain substitution; Fab in periplasmic extract; also called C5A (XPA23) S93V) VH: EVQLLESGGGLVQPGGSLRLSCAASGFTFSKYFMFWVRQAPGKGLEWVSVISPSGGMTRYADSVKGRFTISRDNSKNTLYLQMNSLRAEDTAVYYCARVGYGGNSDYWGQGTLVTVSS VL: DIQMTQSPSSVSASVGDRLTIICRASQDINRWLAWYQQTPGNAPKLLIHSATSLQSGVPSRFSGSGSGTDFTLTINSLQPEDFATYYCQQADVFPLTFGGGTKVEIK
0.75 |  | XPA23 light chain S93G (Fab, V domains shown, Single light chain substitution; Fab in periplasmic extract; also called C5A (XPA23) S93G) VH: EVQLLESGGGLVQPGGSLRLSCAASGFTFSKYFMFWVRQAPGKGLEWVSVISPSGGMTRYADSVKGRFTISRDNSKNTLYLQMNSLRAEDTAVYYCARVGYGGNSDYWGQGTLVTVSS VL: DIQMTQSPSSVSASVGDRLTIICRASQDINRWLAWYQQTPGNAPKLLIHSATSLQSGVPSRFSGSGSGTDFTLTINSLQPEDFATYYCQQADGFPLTFGGGTKVEIK
 | no binding | XPA23 light chain S93P (Fab, V domains shown, Single light chain substitution; Fab in periplasmic extract; also called C5A (XPA23) S93P) VH: EVQLLESGGGLVQPGGSLRLSCAASGFTFSKYFMFWVRQAPGKGLEWVSVISPSGGMTRYADSVKGRFTISRDNSKNTLYLQMNSLRAEDTAVYYCARVGYGGNSDYWGQGTLVTVSS VL: DIQMTQSPSSVSASVGDRLTIICRASQDINRWLAWYQQTPGNAPKLLIHSATSLQSGVPSRFSGSGSGTDFTLTINSLQPEDFATYYCQQADPFPLTFGGGTKVEIK
1.47 |  | XPA23 light chain S93T (Fab, V domains shown, Single light chain substitution; Fab in periplasmic extract; also called C5A (XPA23) S93T) VH: EVQLLESGGGLVQPGGSLRLSCAASGFTFSKYFMFWVRQAPGKGLEWVSVISPSGGMTRYADSVKGRFTISRDNSKNTLYLQMNSLRAEDTAVYYCARVGYGGNSDYWGQGTLVTVSS VL: DIQMTQSPSSVSASVGDRLTIICRASQDINRWLAWYQQTPGNAPKLLIHSATSLQSGVPSRFSGSGSGTDFTLTINSLQPEDFATYYCQQADTFPLTFGGGTKVEIK
